Measurements published in US6905854B2, “Mutated penicillin expandase and process for preparing 7-ADCA using the same” (Synmax Biochemical Co., Ltd., priority 2002, dated 2005).

Key:
Format in all cases: biochemical
[1] = Kinetic assay of purified DAOCS with penicillin N as main substrate; conditions: for kcat / Km: for penicillin N, 0.5 μg purified DAOCS, 30° C., 10 minutes; for Km: triplicate, Hanes-Woolf Plot
Experimental: (§1) The cell extract (2 ml) of a candidate mutant was applied onto a HiTrap Q column (5 ml) pre-equilibrated with buffer B (50 mM Mops/pH 7.5, 1 mM DTT, 0.4 mM pefabloc SC, and 0.5 μg/ml leupeptin). Then, the column was washed with 20 ml of buffer B, followed by a further wash with 25 ml of buffer B containing 120 mM NaCl, and DAOCS was eluted off with 20 ml of buffer B containing 150 mM NaCl. The DAOCS containing fractions were pooled (10 ml), concentrated by UF 15 device (NMWL 5K; Millipore), and loaded onto a Hiload Superdex 75 (16/60) column pre-equilibrated with buffer B at a flow rate of 1 ml/min.
(§2) The standard penicillin G assay was followed for kinetic assay, but 20 μg of purified DAOCS was used and the concentration of α-ketoglutarate was reduced to 1 mM. Kinetic parameters were obtained from triplicate experiments by Hanes-Woolf Plot. For assays using penicillin N as a main substrate, a total volume of 240 μl reaction containing 50 mM Hepes/pH 7.5, 0.4 mM ascorbate, 0.1 mM FeSO4, 0.1 mM α-ketoglutarate, 0.1 mM penicillin N and 0.5 μg of purified DAOCS was incubated at 30° C. for 10 minutes, then the same volume of 10 mM EDTA/pH 7.5 was added, and the mixture was subjected to ultrafiltration with UF 0.5 device (NMWL 5000, Millipore). The filtrate was analyzed by HPLC using 25 mM potassium phosphate/pH 6.5 as a mobile phase. The retention time of DAOC and penicillin N was 12 minutes and 13.5 minutes, respectively The results of kinetic parameters are shown in Table 1, wherein the definition and calculation of the parameters are described in Lehninger et al. Principles of Biochemistry, 2nd Ed. Worth Publishers, New York (1993) which is incorporated herein for reference.

[2] = Kinetic assay of purified DAOCS with penicillin G (standard penicillin G assay, HPLC of cephalosporin G); conditions: for penicillin G, 20 μg purified DAOCS, 1 mM α-ketoglutarate, 30° C.; for Km: triplicate, Hanes-Woolf Plot
Experimental: (§3) For penicillin G, 20 μl of cell extracts was added into a standard 200 μl assay reaction containing 50 mM Mops/pH 7.5, 4 mM ascorbate, 1 mM FeSO4, 4 mM α-ketoglutarate and 7 mM penicillin G, and incubated at 30° C. for 20 minutes. The reaction was stopped by addition of 200 μl of ethanol, followed by a centrifugation at 15,000×g for 5 minutes. The concentration of cephalosporin G in supernatant was analyzed by HPLC with 40 μl injection. The mobile phase was 25 mM potassium phosphate/pH 6.5 with 19% acetonitrile at a flow rate of 1 ml/min. The retention time for cephalosporin G was 8.5 minutes and 12.5 minutes for penicillin G with detection at 215 nm, and the product at 8.5 minutes in DAOCS reaction was confirmed by ESI-LC/MS (positive): [M+H]^+=333. […] The different combinations of the mutated amino acids mentioned above were also constructed by site-directed mutagenesis.
as §1, §2

[3] = DAOCS activity assay with cell extracts; conditions: 20 μl cell extract, 7 mM penicillin G, 30° C., 20 minutes
Experimental: BL21(DE3) transformants were grown overnight in 5 ml of LB medium with 50 μg/ml kanamycin at 30° C. This culture was used to inoculate 100 ml of the same medium and grown at 30° C. for 1 hour. Then 0.1 mM IPTG was added to induce DAOCS indirectly at 30° C. for 4 hours. Cells were harvested, washed with buffer A (50 mM Mops/pH 7.5, 1 mM PMSF, 1 mM DTT, and 0.5 μg/ml leupeptin), lysed by sonication (VCX 750; Sonics & Materials, USA), and centrifuged at 15,000×g for 15 minutes. The supernatant was used as a cell extract.
as §3

Molecule	kcat [1] [S^−1]	Km [1] [µM]	kcat [2] [S^−1]	Km [2] [µM]	expandase activity on penicillin G compared to parent strain YS16 [3]	expansion activity on penicillin N, folds higher than wild-type YS16 ([1]; penicillin N, compared to wild-type YS16) [folds]
YS11: mutated penicillin expandase (DAOCS) with substitution I305M (protein, UniProt P18548 1-311, looked up, variant I305M) Deacetoxycephalosporin C …: MDTTVPTFSLAELQQGLHQDEFRRCLRDKGLFYLTDCGLTDTELKSAKDLVIDFFEHGSEAEKRAVTSPVPTMRRGFTGLESESTAQITNTGSYSDYSMCYSMGTADNLFPSGDFERIWTQYFDRQYTASRAVAREVLRATGTEPDGGVEAFLDCEPLLRFRYFPQVPEHRSAEEQPLRMAPHYDLSMVTLIQQTPCANGFVSLQAEVGGAFTDLPYRPDAVLVFCGAIATLVTGGQVKAPRHHVAAPRRDQIAGSSRTSSVFFLRPNADFTFSVPLARECGFDVSLDGETATFQDWIGGNYVNMRRTSKA	0.310 ± 0.004	12 ± 1	0.1452 ± 0.0020	750 ± 40	higher expandase activities on penicillin G than the parent strain YS16	–
YS12: mutated penicillin expandase (DAOCS) with substitution N304K (protein, UniProt P18548 1-311, looked up, variant N304K) Deacetoxycephalosporin C …: MDTTVPTFSLAELQQGLHQDEFRRCLRDKGLFYLTDCGLTDTELKSAKDLVIDFFEHGSEAEKRAVTSPVPTMRRGFTGLESESTAQITNTGSYSDYSMCYSMGTADNLFPSGDFERIWTQYFDRQYTASRAVAREVLRATGTEPDGGVEAFLDCEPLLRFRYFPQVPEHRSAEEQPLRMAPHYDLSMVTLIQQTPCANGFVSLQAEVGGAFTDLPYRPDAVLVFCGAIATLVTGGQVKAPRHHVAAPRRDQIAGSSRTSSVFFLRPNADFTFSVPLARECGFDVSLDGETATFQDWIGGNYVKIRRTSKA	0.366 ± 0.023	4 ± 1	0.0564 ± 0.0003	220 ± 30	higher expandase activities on penicillin G than the parent strain YS16	4
